Measured values from article PMC2582960, “A Structural Model of the Staphylococcus aureus ClfA–Fibrinogen Interaction Opens New Avenues for the Design of Anti-Staphylococcal Therapeutics” (PLoS Pathogens, 2008).

B1: unnamed (parent)
chain 1: GEGQQHHLGGAKQAGDV
chain 2: GTDITNQLTNVTVGIDSGTTVYPHQAGYVKLNYGFSVPNSAVKGDTFKITVPKELNLNGVTSTAKVPPIMAGDQVLANGVIDSDGNVIYTFTDYVNTKDDVKATLTMPAYIDPENVKKTGNVTLATGIGSTTANKTVLVDYEKYGKFYNLSIKGTIDQIDKTNNTYRQTIYVNPSGDNVIAPVLTGNLKPNTDSNALIDQQNTSIKVYKVDNAADLSESYFVNPENFEDVTNSVNITFPNPNQYKVEFNTPDDQITTPYIVVVNGHIDPNSKGDLALRSTLYGYNSNIIWRSMSWDNEVAFNNGSGSGDGIDKPVVP

Variants of: B1
Experiment: solid-phase competition (inhibition) assay
Conditions: with partner chain of the complex shown;; read off a plot

Variant | response (Absorbance (405 nm))
chain 1 GEGQQHHLGGAKQAADV [chain 1 G15A] | 0.28
chain 1 GAGQQHHLGGAKQAGDV [chain 1 E2A] | 0.21
chain 1 GEGQQHHLGAAKQAGDV [chain 1 G10A] | 0.25
chain 1 GEGQQHALGGAKQAGDV [chain 1 H7A] | 0.28
chain 1 GEGQQHHLAGAKQAGDV [chain 1 G9A] | 0.21
chain 1 GEGAQHHLGGAKQAGDV [chain 1 Q4A] | 0.2
chain 1 AEGQQHHLGGAKQAGDV [chain 1 G1A] | 0.25
chain 1 GEAQQHHLGGAKQAGDV [chain 1 G3A] | 0.2
chain 1 GEGQQAHLGGAKQAGDV [chain 1 H6A] | 0.31
chain 1 GEGQQHHAGGAKQAGDV [chain 1 L8A] | 0.15
chain 1 GEGQAHHLGGAKQAGDV [chain 1 Q5A] | 0.23
chain 1 GEGQQHHLGGAAQAGDV [chain 1 K12A] | 0.23
chain 1 GEGQQHHLGGAKQSGDV [chain 1 A14S] | 0.29
chain 1 GEGQQHHLGGAKAAGDV [chain 1 Q13A] | 0.29
chain 1 GEGQQHHLGGAKQAGDA [chain 1 V17A] | 0.13
chain 1 GEGQQHHLGGSKQAGDV [chain 1 A11S] | 0.11
